# T1: CasEnd-7 (synthetic construct)
# T1 chain: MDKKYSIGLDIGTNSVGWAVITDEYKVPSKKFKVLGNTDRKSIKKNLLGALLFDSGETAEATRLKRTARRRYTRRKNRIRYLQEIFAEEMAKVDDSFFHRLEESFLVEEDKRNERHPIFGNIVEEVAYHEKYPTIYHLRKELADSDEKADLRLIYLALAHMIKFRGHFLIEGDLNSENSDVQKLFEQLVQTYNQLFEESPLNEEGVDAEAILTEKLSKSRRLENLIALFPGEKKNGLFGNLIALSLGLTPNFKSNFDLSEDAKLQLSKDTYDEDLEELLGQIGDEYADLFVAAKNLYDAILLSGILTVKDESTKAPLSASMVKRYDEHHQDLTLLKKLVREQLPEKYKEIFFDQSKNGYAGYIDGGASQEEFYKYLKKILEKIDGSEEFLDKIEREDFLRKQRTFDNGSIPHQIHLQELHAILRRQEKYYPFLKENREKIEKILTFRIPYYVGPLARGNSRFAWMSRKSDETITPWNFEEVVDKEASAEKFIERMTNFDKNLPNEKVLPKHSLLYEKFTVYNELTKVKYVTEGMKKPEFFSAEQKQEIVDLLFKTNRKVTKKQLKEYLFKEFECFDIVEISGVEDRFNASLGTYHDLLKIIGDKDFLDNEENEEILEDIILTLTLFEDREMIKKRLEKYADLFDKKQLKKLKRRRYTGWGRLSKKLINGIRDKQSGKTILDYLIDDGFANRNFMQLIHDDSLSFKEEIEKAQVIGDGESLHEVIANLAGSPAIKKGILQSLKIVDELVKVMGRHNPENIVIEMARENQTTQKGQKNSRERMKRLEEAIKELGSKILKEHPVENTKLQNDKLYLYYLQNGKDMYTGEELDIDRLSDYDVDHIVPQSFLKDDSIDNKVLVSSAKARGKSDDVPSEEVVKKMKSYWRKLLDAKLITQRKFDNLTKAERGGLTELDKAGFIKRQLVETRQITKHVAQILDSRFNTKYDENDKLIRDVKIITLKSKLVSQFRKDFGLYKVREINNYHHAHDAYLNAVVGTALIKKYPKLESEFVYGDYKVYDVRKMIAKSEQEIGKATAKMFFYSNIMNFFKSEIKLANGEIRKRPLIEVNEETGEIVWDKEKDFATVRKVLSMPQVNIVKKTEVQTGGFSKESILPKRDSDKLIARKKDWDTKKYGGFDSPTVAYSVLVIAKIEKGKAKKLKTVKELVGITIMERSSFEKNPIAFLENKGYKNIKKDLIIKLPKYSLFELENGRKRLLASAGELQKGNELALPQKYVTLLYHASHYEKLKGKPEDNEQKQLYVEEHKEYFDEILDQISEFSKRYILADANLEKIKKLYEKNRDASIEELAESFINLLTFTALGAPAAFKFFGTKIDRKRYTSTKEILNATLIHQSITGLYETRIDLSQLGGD
# Target: T1, CasEnd-7
# Assay: cell_activity; +++; HEK293T; PAM not stated
# How it was run: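 BFP-to-GFP conversion via reverse transcriptase fusion with each Cas endonuclease plus template RNA: 200 ng of each plasmid nucleofected into 250,000 BFP-expressing HEK293T cells (program DS-150). Percent GFP+ cells by flow cytometry at day 4 measured editing.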
binder,measurement,value
BFP-to-GFP template RNA ; BFP reporter protospacer (ssRNA ; dsDNA) RNA: GCCGAAGCACUGCACGCCGUGUUUUAGAGCUAGAAAUAGCAAGUUAAAAUAAGGCUAGUCCGUUAUCAACUUGAAAAAGUGGCACCGAGUCGGUGCACCCUGACGUACGGCGUGCAGUGCUU DNA 1: GCCGAAGCACTGCACGCCGT DNA 2: ACGGCGTGCAGTGCTTCGGC,activity,≥ 100 % of reference

# From patent US20250092426, “CAS ENDONUCLEASES AND RELATED METHODS” (Flagship Pioneering Innovations VII, LLC, published 2025)
